Reference: US20180118841A1
Positions count from the first letter of the chain named.

B1: anti-OX40 antibody 1170/1171 (antibody, V domains shown)
VH: EVQLLESGGGLVQPGGSLRLSCAASGFTFGGYYMSWVRQAPGKGLEWVSYIPGSGGSTYYADSVKGRFTISRDNSKNTLYLQMNSLRAEDTAVYYCARYDYYWMDYWGQGTLVTVSS
VL: DIQMTQSPSSLSASVGDRVTITCRASQSISSYLNWYQQKPGKAPKLLIYAASSLQSGVPSRFSGSGSGTDFTLTISSLQPEDFATYYCQQGHGSYPHTFGQGTKLEIK
B2: anti-CD137 antibody 1204/1205 (antibody, IgG1, V domains shown)
VH: EVQLLESGGGLVQPGGSLRLSCAASGFTFSSYYMGWVRQAPGKGLEWVSGIGSYYGYTGYADSVKGRFTISRDNSKNTLYLQMNSLRAEDTAVYYCARAYYDYNYYYAYFDYWGQGTLVTVSS
VL: B1 VL with G91S, H92V, G93P, S94H, H97F

What was measured:
[1] = target: OX40 human/mouse chimera 1544 (human; mouse) (UniProt P47741); assay: FACS, 293-F transfectants; MFI/isotype control
[2] = target: CD137 human/mouse chimera 1550 (human; mouse) (UniProt P20334); assay: FACS, 293-F transfectants; MFI/isotype, normalized to full-length CD137
Chain of CD137 human/mouse chimera 1550 (human; mouse) (P20334 other isoform, or with tags, fused parts or gaps mutant limits assumed): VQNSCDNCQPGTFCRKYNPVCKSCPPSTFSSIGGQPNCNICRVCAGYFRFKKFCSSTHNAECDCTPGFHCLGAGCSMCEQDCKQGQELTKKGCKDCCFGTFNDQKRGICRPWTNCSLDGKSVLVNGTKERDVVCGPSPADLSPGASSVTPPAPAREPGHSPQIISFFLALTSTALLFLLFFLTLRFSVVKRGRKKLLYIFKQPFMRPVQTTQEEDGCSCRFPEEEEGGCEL

Chain of OX40 human/mouse chimera 1544 (human; mouse) (P47741 other isoform, or with tags, fused parts or gaps mutant limits assumed): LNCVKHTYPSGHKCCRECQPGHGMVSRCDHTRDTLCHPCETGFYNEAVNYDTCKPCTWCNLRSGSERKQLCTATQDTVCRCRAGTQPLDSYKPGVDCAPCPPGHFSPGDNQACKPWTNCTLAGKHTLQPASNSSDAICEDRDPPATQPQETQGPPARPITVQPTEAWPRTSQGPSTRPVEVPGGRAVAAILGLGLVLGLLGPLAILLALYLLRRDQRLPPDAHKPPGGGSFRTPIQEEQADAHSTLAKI

| Binder | relative MFI [1] | relative binding [2] |
| --- | --- | --- |
| B1 | 2 | – |
| B2 | – | 0.07 |
